Measurements taken from PMC3633659.

Tests used:
[1] = biological target: Mamu-A2*01:02 (Chinese rhesus macaque | not stated); test: radioligand binding
[2] = biological target: Mamu-B*010:01 (Chinese rhesus macaque | not stated); test: radioligand binding

Row | Binder | IC50 [1] [µM] | IC50 [2] [µM]
1 | DRLALLANL [… (C. trachomatis recC exodeoxyribonuclease-V g chain)] | 19.1 | > 20
2 | EREQTLNQL [… (C. trachomatis ATP-dependent zinc protein)] | 13.2 | > 20
3 | MRDHTITLL [… (C. trachomatis NADH-ubiquinone-oxidoreductase-a-chain)] | > 20 | 0.008
4 | NRAKQVIKL [… (C. trachomatis protease ATPase)] | > 20 | 0.106
5 | RRYQKSTEL [… (E. coli derived)] | 6.65 | 0.291
6 | KRVVINKDT [… (Y. enterocolitica Hsp60)] | > 20 | > 20
7 | SRHHAFCFR [… (Aggrecan precursor p667)] | 2.06 | > 20
